In publication PMC6530996, “HspB1 phosphorylation regulates its intramolecular dynamics and mechanosensitive molecular chaperone interaction with filamin C” (Science Advances, 2019):

Assay: ion mobility collision cross-section
Assay type: physicochemical
Details: native IM-MS, N2, calibrated with β-lactoglobulin and avidin
Text: To isolate a stable HspB1-FLNCd18–21 complex and localize the binding within HspB1, we performed native ion mobility MS (IM-MS) experiments. […] Next, we mixed FLNCd18–21 with either HspB1_84–171 or peptides mimicking the PPR, because this region is phosphorylated in the MLP KO mice (Fig. 1C) and generally upon biomechanical stress ([26]) and becomes exposed thereafter. This strategy of using segments of HspB1 meant that we could avoid the problems of insolubilization of the full-length protein upon interaction with FLNC d18–21, as well as generally mitigate the confounding effects associated with the chaperone’s intrinsic polydispersity.
Because HspB1 can form disulfide-linked dimers, experiments involving the ACD were performed in the presence of 10-fold molar excess DTT. Gold-plated capillaries were prepared in-house. Native MS and IM-MS data were recorded on a Synapt G1 mass spectrometer (Waters) modified for the transmission of intact noncovalent protein complexes. HspB1_77–171 variants were analyzed at a concentration of 10 μM in 200 mM ammonium acetate (pH 6.9). […]
CCSs (Ω) of models from the PDB (trimmed in PyMOL as described in the Supplementary Materials) were calculated by the projection approximation method using IMPACT ([60]), accounting for N2 as the collision gas. […]

B1: FLNCd18–21: Human FLNC domains 18-21 (protein)
chain: TAKITGDDSMRTSQLNVGTSTDVSLKITESDLSQLTASIRAPSGNEEPCLLKRLPNRHIGISFTPKEVGEHVVSVRKSGKHVTNSPFKILVGPSEIGDASKVRVWGKGLSEGHTFQVAEFIVDTRNAGYGGLGLSIEGPSKVDINCEDMEDGTCKVTYCPTEPGTYIINIKFADKHVPGSPFTVKVTGEGRMKESITRRRQAPSIATIGSTCDLNLKIPGNWFQMVSAQERLTRTFTRSSHTYTRTERTEISKTRGGETKREVRVEESTQVGGDPFPAVFGDFLGRERLGSFGSITRQQEGEASSQDMTAQVTSPSGKVEAAEIVEGEDSAYSVRFVPQEMGPHTVAVKYRGQHVPGSPFQFTVGPLGEGGAHKVRAGGTGLERGVAGVPAEFSIWTREAGAGGLSIAVEGPSKAEIAFEDRKDGSCGVSYVVQEPGDYEVSIKFNDEHIPDSPFVVPVASLSDDA
modifications: left off: His6, C-terminal, state not stated | EEF, C-terminal, kept
collision cross section (CCS): 37.2 ± 0.8 nm^2
